In paper PMC8309178, “Two Novel PET Radiopharmaceuticals for Endothelial Vascular Cell Adhesion Molecule-1 (VCAM-1) Targeting” (Pharmaceutics, 2021):
Blank lines part the entries; values can stand above or below the substance they belong to. No end group written: not given here. *: point of attachment. maleimido‑mono‑amide‑DOTA = O=C(O)CN1CCN(CC(=O)O)CCN(CC(=O)NCCN2C(=O)CC(*)C2=O)CCN(CC(=O)O)CC1; NAM = N-norbiotinyl-β-maleimidopropionylamide, biotin derivative conjugated to Cys thiol

Columns and labels:
[1] = molecular target: T1, VCAM-1 expressed on HUVEC (Homo sapiens, UniProt P19320); assay: In vitro test of 68Ga-MacroP on HUVEC (LigandTracer radioactive uptake); assay type: cell-based; parameters: endogenous in cells; host or cells: primary HUVEC stimulated with 10 ng/mL TNF-alpha for 4 h; details: HUVEC activated with 10 ng/mL TNF-α for 4 h vs unstimulated HUVEC; 5 MBq 68Ga-MacroP in 3 mL saline; LigandTracer White
T1 sequence (P19320 25-739): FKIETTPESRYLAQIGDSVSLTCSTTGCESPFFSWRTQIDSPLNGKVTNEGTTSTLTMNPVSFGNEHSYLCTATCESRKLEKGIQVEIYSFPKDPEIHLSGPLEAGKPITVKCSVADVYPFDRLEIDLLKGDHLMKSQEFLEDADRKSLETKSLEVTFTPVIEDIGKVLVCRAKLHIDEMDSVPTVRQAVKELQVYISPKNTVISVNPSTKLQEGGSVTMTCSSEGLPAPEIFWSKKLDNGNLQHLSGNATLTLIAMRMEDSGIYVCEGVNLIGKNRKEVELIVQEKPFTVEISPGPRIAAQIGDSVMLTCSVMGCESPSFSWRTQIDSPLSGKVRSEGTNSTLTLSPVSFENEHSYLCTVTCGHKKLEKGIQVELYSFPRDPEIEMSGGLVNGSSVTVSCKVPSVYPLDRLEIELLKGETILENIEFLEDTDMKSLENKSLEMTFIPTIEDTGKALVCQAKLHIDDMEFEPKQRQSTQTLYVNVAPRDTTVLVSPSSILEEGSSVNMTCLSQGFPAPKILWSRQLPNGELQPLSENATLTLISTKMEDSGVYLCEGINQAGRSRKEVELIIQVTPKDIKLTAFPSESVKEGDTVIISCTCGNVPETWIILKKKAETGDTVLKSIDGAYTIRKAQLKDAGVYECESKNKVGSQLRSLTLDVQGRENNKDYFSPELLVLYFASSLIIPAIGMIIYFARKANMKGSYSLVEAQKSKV
Text: (§1) Human Umbilical Vein Endothelial Cells (HUVEC) were obtained from human umbilical cords collected from full-term women immediately after cesarean section at the Gynecology and Obstetrics Department of International Evangelical Hospital in Genoa (Italy), after patients’ informed consent and the approval (register number 2/2010-19, February, 2010) by the Institutional Ethical Committee. Each cord vein was individually processed for obtaining endothelial cells through mechanical dissociation of the tissue and collagenase digestion. Cells were maintained in culture medium EndoGRO-LS Complete Culture Media Kit seeded on attachment factor-coated plates. For labeling experiments, 8 × 10^5 cells were plated on Petri dishes in EndoGRO Basal Medium (SCME-BM) and allowed to attach overnight prior stimulation with 10 ng/mL of TNF-alpha (TNF-α) for 4 h. Cells without TNF-α treatment were used as control (Figures S19 and S20).
The binding assay of ^68Ga-MacroP with VCAM-1 expressed on HUVEC was monitored using LigandTracer® White (Ridgeview Instruments AB, Uppsala, Sweden) according to our previously validated procedure. Briefly, the tool consists of a beta-emission detector and a rotating platform harboring a standard Petri dish. […] The binding of radioactivity to cell-containing areas and reference areas was recorded. […]

[2] = deglycosylated form of avidin; cited from earlier work
Experimental: After radiolabeling with ^68Ga, both MacroP and NAMP were tested on human endothelial cells. Quantitative PCR and Fluorescence-Activated Cell Sorting (FACS) analysis were performed prior to the experiments, to assess the expression of VCAM-1 on HUVEC. To avoid excessive stress for the cells, they were activated with TNF-α for 4 h only. In the three-step pretargeting test, a commercially available deglycosylated form of avidin (NeutrAvidin™) was employed because it is characterized by reduced non-specific binding, low isoelectric point (~6.3) and low production cost with respect to ...

avidin = avidin (Gallus gallus, UniProt P02701); assay: NAMP-avidin binding (ultrafiltration, RP-HPLC, capillary electrophoresis); details: approx. 0.17 mM NAMP with avidin 2.5 μg/μL, 37 °C, 2 h; 30 kD cut-off ultrafiltration; RP-HPLC of ultrafiltrate, capillary electrophoresis of retentate
Experimental: Avidin was dissolved in ultrapure water (2.5 μg/μL). This solution (100 μL) was mixed with a NAMP solution (approx. 0.17 mM) and heated at 37 °C under 400 rpm orbital shaking for 2 h. The mixture was placed in an ultrafiltration system with a regenerated cellulose membrane (30 kD cut-off), and washed with 250 μL of ultrapure water at 1400 g for 20 min at 15 °C. By inverted spinning at 1000 g for 3 min, the retentate was recovered and analyzed by capillary electrophoresis (Agilent Technologies 7100 Capillary Electrophoresis, Santa Clara, CA, USA). Separations were performed in a bare fused-silica capillary 50 μm (i.d.) × 64.5 cm (L) × 50 cm (L), activated with 1 M aqueous NaOH, 0.1 M aqueous NaOH and washed with ultrapure water. The conditioning and the run were carried out with 50 mM sodium phosphate buffer (pH 2.5), used also for 120 s preconditioning before injection. The gradient voltage was from 0 to 30 kV in 0.2 min.

[3] = molecular target: T1, VCAM-1 expressed on HUVEC; assay: In vitro test of NAMP-avidin-68Ga-BisDOTA on HUVEC (three-step pretargeting, LigandTracer); assay type: cell-based; parameters: endogenous in cells; host or cells: primary HUVEC stimulated with TNF-alpha
Text: as §1, with “Cells without TNF-α treatment were used as control (Figures S19 and S20).” left out
After removing the culture medium containing TNF-α, stimulated HUVEC were incubated at 37 °C with 4 nmol of NAMP for 20 min and afterwards with 3.5 nmol of NeutrAvidin™ for 10 min. After washing and replacing the culture medium with 3 mL of the saline solution containing 5MBq of ^68Ga-BisDOTA (specific activity 37.0 MBq/nmol), the binding assay of ^68Ga-BisDOTA with the NAMP-avidin complex, bound to the VCAM-1 expressed on HUVEC, was monitored using the same procedure described in Section 2.3.5.

Sequence of avidin (P02701 25-152, species assumed): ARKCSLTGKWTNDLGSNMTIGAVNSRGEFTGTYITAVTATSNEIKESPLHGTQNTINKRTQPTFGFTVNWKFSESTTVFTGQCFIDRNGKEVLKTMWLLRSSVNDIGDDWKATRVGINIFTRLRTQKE

- radiosignal uptake of activated cells compared to control cells [1]: 4 fold
Substance: MacroP: reaction product of maleimido-mono-amide-DOTA with the cysteine thiol of the VCAM-1-binding peptide VHPKQHRGGSKGC (VHPKQHRGGSKGC(maleimido‑mono‑amide‑DOTA))

Substance: NeutrAvidin™: commercially available deglycosylated form of avidin
- isoelectric point [2]: ~ 6.3

- avidin binding: unbound NAMP in the ultrafiltrate (avidin): no unbound NAMP could be detected
- radioactive uptake of activated cells compared to the controls ([3]; HUVEC activated with 10 ng/mL TNF-α for 4 h vs unstimulated, 4 nmol NAMP 20 min at 37 °C, 3.5 nmol NeutrAvidin 10 min, then 5 MBq 68Ga-BisDOTA in 3 mL saline): 12 fold
Substance: NAMP: biotin derivative: NAM (N-norbiotinyl-β-maleimidopropionylamide) conjugated to the cysteine thiol of VHPKQHRGGSKGC, for three-step pretargeting (VHPKQHRGGSKGC(NAM))
- uptake of radioactivity, activated cells versus control cells (in words) ([3]; TNF-α activated HUVEC vs control, NAMP, then NeutrAvidin and 68Ga-BisDOTA, p < 0.05): evidently higher uptake of radioactivity compared to the control cells
